In this assay the target is extracellular protease domain of wildtype human ACE2 (residues 19-615) (human, UniProt Q9BYF1 19-615).
Chain of extracellular protease domain of wildtype human ACE2 (residues 19-615) (Q9BYF1 19-615): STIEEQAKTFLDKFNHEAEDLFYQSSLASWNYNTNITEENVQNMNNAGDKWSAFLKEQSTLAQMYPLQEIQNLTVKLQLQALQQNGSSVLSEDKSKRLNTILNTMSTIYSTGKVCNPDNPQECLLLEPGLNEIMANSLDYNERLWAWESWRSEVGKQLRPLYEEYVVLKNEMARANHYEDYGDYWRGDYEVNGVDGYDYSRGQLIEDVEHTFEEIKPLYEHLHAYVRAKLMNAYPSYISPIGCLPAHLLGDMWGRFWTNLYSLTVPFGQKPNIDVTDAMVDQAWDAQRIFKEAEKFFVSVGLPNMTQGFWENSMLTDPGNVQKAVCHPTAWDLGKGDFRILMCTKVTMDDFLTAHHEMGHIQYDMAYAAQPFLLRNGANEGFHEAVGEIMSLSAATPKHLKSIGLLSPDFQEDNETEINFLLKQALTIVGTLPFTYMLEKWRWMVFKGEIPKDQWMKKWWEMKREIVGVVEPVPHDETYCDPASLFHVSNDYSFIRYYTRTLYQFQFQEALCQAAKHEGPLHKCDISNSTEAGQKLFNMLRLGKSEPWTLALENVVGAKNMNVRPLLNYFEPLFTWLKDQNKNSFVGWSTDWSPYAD

B1: receptor binding domain (RBD) of HCoV-NL63 spike (residues 481-616) (ligand)
chain: QHTDINFTATASFGGSCYVCKPHQVNISLNGNTSVCVRTSHFSIRYIYNRVKSGSPGDSSWHIYLKSGTCPFSFSKLNNFQKFKTICFSTVEVPGSCNFPLEATWHYTSYTIVGALYVTWSEGNSITGVPYPVSGI
On to B1, for which the equilibrium dissociation constant (Kd) – broadly, the concentration at which binding is half-saturated – was 430 nM.

The values above are taken from patent US20230399641A1 (SHANGHAITECH UNIVERSITY, published 2023).
